The target of the assay is T1, Purified ASB11 bound on anti-Myc beads (human (ASB11 cDNA amplified from 293T …, UniProt Q8WXH4 1-323)).
T1 sequence (looked up): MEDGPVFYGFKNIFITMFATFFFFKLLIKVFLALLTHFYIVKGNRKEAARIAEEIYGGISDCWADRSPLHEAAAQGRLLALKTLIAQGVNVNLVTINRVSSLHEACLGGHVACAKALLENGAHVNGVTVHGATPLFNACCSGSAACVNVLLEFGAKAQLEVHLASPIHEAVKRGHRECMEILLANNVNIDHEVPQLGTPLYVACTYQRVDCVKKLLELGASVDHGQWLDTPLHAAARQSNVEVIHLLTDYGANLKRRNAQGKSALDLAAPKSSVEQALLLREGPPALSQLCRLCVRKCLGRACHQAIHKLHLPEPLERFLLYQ
In words: pull-down.

B1: 3xFlag-BIK (natural protein, UniProt Q13323 1-160, looked up)
chain: MSEVRPLSRDILMETLLYEQLLEPPTMEVLGMTDSEEDLDPMEDFDSLECMEGSDALALRLACIGDEMDVSLRAPRLAQLSEVAMHSLGLAFIYDQTEDIRDVLRSFMDGFTTLKENIMRFWRSPNPGSWVSCEQVLLALLLLLALLLPLLSGGLHLLLK
As for B1, the binding result was “binds”.

The values are drawn from publication PMC6719446 (The Journal of Cell Biology, 2019).
